Drawing on paper PMC5779225, this text covers localisation_or_trafficking for 3 proteins.

A short description of the data set: surface biotinylation, NeutrAvidin pull-down, immunoblot. Particulars: glycan lost; control: wild type. (In western blotting, separated proteins are transferred to a membrane and probed.)

B1: Frizzled3 (Fzd3): N42Q (protein)
parent chain: MAVSWIVFDLWLLTVFLGQIGGHSLFSCEPITLRMCQDLPYNTTFMPNLLNHYDQQTAALAMEPFHPMVNLDCSRDFRPFLCALYAPICMEYGRVTLPCRRLCQRAYSECSKLMEMFGVPWPEDMECSRFPDCDEPYPRLVDLNLVGDPTEGAPVAVQRDYGFWCPRELKIDPDLGYSFLHVRDCSPPCPNMYFRREELSFARYFIGLISIICLSATLFTFLTFLIDVTRFRYPERPIIFYAVCYMMVSLIFFIGFLLEDRVACNASSPAQYKASTVTQGSHNKACTMLFMVLYFFTMAGSVWWVILTITWFLAAVPKWGSEAIEKKALLFHASAWGIPGTLTIILLAMNKIEGDNISGVCFVGLYDVDALRYFVLAPLCLYVVVGVSLLLAGIISLNRVRIEIPLEKENQDKLVKFMIRIGVFSILYLVPLLVVIGCYFYEQAYRGIWETTWIQERCREYHIPCPYQVTQMSRPDLILFLMKYLMALIVGIPSIFWVGSKKTCFEWASFFHGRRKKEIVNESRQVLQEPDFAQSLLRDPNTPIIRKSRGTSTQGTSTHASSTQLAMVDDQRSKAGSVHSKVSSYHGSLHRSRDGRYTPCSYRGMEERLPHGSMSRLTDHSRHSSSHRLNEQSRHSSIRDLSNNPMTHITHGTSMNRVIEEDGTSA
On to B1, for which the localisation_or_trafficking result is “decreases”.

B2: Frizzled3 (Fzd3): 2NQ (protein)
parent chain: B1 parent chain
Consider B2, for which the localisation_or_trafficking result was “changes”.

B3: Frizzled3 (Fzd3): N356Q (protein)
parent chain: B1 parent chain
As to B3, the localisation_or_trafficking result was “abolishes”.
